Experimental data from publication PMC4589789, “Anti-interleukin-6 therapy through application of a monogenic protein inhibitor via gene delivery” (Scientific Reports, 2015).

Legend:
murine IL-6 (mouse) [1] = target: murine IL-6 (mouse) (UniProt P08505)
murine IL-6 (mouse) [2] = target: murine IL-6 (mouse) (UniProt P08505); remark: listed apart in the source
[3] = target: the molecule itself; experiment: SDS-PAGE under non-reducing and reducing conditions; purified mIL-6-RFP-Fc on 7.5% SDS/PAGE, Coomassie staining and Western blotting; disulfide-linked dimer versus monomer

murine IL-6 (mouse), sequence (P08505 25-211): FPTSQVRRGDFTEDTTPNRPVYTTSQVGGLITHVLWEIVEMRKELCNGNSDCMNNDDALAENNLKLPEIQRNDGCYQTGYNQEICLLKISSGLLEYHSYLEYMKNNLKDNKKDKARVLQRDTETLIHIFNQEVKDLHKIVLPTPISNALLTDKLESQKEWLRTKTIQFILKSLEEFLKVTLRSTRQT

B1: mIL-6-RFP-Fc (murine IL-6 receptor fusion protein with engineered mIgG2a Fc-fragment and 3V5-3HA tag) (Fc fusion)
chain: QLLEPCGYIYPEFPVVQRGSNFTAICVLKEACLQHYYVNASYIVWKTNHAAVPREQVTVINRTTSSVTFTDVVLPSVQLTCNILSFGQIEQNVYGVTMLSGFPPDKPTNLTCIVNEGKNMLCQWDPGRETYLETNYTLKSEWATEKFPDCQSKHGTSCMVSYMPTYYVNIEVWVEAENALGKVSSESINFDPVDKVKPTPPYNLSVTNSEELSSILKLSWVSSGLGGLLDLKSDIQYRTKDASTWIQVPLEDTMSPRTSFTVQDLKPFTEYVFRIRSIKDSGKGYWSDWSEEASGTTYEDLVLGSCRALEVANGTVTSLPGATVTLICPGKEAAGNVTIHWVYSGSQNREWTTTGNTLVLRDVQLSDTGDYLCSLNDHLVGTVPLLVDVPPEEPKLSCFRKNPLVNAICEWRPSSTPSPTTKAVLFAKKINTTNGKSDFQVPCQYSQQLKSFSCQVEILEGDKVYHIVSLCVANSVGSKSSHNEAFHSLKMVQPDPPANLVVSAIPGRPRWLKVSWQHPETWDPSYYLLQFQLRYRPVWSKEFTVLLLPVAQYQCVIHDALRGVKHVVQVRGKEELDLGQWSEWSPEVTGTPWIPRGPTIKPCPPCKCPAPNLEGGPSVFIFPPKIKDVLMISLSPIVTCVVVDVSEDDPDVQISWFVNNVEVHTAQTQTHREDYNSTLRVVSALPIQHQDWMSGKAFACAVNNKDLPAPIERTISKPKGSVRAPQVYVLPPPEEEMTKKQVTLTCMVTDFMPEDIYVEWTNNGKTELNYKNTEPVLDSDGSYFMYSKLRVEKKNWVERNSYSCSVVHEGLHNHHTTKSFSRTPGK
IC50 of inhibition of IL-6 (37 pM)-dependent proliferation of Ba/F3-mgp130/mIL-6Rα cells, serial 2-fold dilutions from 3.9 nM, XTT assay after 60 h (murine IL-6 (mouse) [1]): 3.3e-05 μM | attenuation of IL-6 (100 ng i.v.)-induced ERK1/2 phosphorylation in mouse kidney after pretreatment with mIL-6-RFP-Fc i.p. for 45 min (4, 12 or 40 μg; value for 40 μg, 70× molar excess) (murine IL-6 (mouse) [2]): 50% | attenuation of IL-6 (100 ng i.v.)-induced ERK1/2 phosphorylation in mouse liver after pretreatment with mIL-6-RFP-Fc i.p. for 45 min (4, 12 or 40 μg; value for 40 μg, 70× molar excess) (murine IL-6 (mouse) [2]): 63% | attenuation of IL-6 (100 ng i.v.)-induced STAT3 phosphorylation in mouse kidney after pretreatment with mIL-6-RFP-Fc i.p. for 45 min (4, 12 or 40 μg; value for 40 μg, 70× molar excess) (murine IL-6 (mouse) [2]): 80% | attenuation of IL-6 (100 ng i.v.)-induced STAT3 phosphorylation in mouse liver after pretreatment with mIL-6-RFP-Fc i.p. for 45 min (4, 12 or 40 μg; value for 40 μg, 70× molar excess) (murine IL-6 (mouse) [2]): 12% | stoichiometry N [3]: 2
